Measurements as given in article PMC11279923, “Assessment of Radiolabelled Derivatives of R954 for Detection of Bradykinin B1 Receptor in Cancer Cells: Studies on Glioblastoma Xenografts in Mice” (Pharmaceuticals, 2024).
Like-named read-outs stand apart in the source and are kept apart here. Each block holds one compound with its values, some of them ahead of it. Non-standard residues stand in square brackets, D forms with d. Residues, ends and D or L forms follow the SMILES beside them. *: point of attachment. DOTA = O=C(O)CN1CCN(CC(=O)O)CCN(CC(=O)*)CCN(CC(=O)O)CC1; Oic = O=C(O)[C@@H]1C[C@@H]2CCCC[C@@H]2N1; d2Nal = N[C@H](Cc1ccc2ccccc2c1)C(=O)O; αMeF = C[C@](N)(Cc1ccccc1)C(=O)O; Orn = NCCC[C@H](N)C(=O)O; Ahx = NCCCCCC(=O)O

Key:
B1R [1] = details: B1R agonist; cited from earlier work
U251MG cells = test: Blocking of [^111In]In-DOTA-Ahx-R954 cell accumulation by B1R antagonist or agonist; type: cell-based, human; details: 100 µM blocker, 120 min, n = 4
Description: (§1) Human glioblastoma cell lines U87MG and U251MG were obtained from the American Type Culture Collection (Manassas, VA, USA) and kept under standard cell culture conditions (5% CO2, 37 °C). Cells were cultured in Eagle’s minimum essential medium (E-MEM; FUJIFILM Wako Pure Chemical Co.) supplemented with 10% v/v foetal bovine serum (BioWest S.A.S, Nuaillé, France), 1% v/v nonessential amino acids (FUJIFILM Wako Pure Chemical Co.), 1 mM sodium pyruvate (FUJIFILM Wako Pure Chemical Co.), and 1% v/v penicillin–streptomycin (10,000 unit-10 mg/mL; FUJIFILM Wako Pure Chemical Co.). Cells were seeded at a density of 1 × 10^5 cells/well in Poly-D-Lysine 24-well plates (Corning Inc., Corning, NY, USA). After 24 h, the medium was removed, and the cells were washed with 500 μL of 0.01 M PBS (+) (FUJIFILM Wako Pure Chemical Co.) and incubated at 37 °C in 500 μL of Hanks Balanced Salt Solution (+) (HBSS (+); FUJIFILM Wako Pure Chemical Co.) for 10 min. […] The value at 0 min was determined by an assay performed using the same protocol as that used immediately after removing the incubation solution. Cell lysate radioactivity was measured using an auto-well gamma counter (2470 WIZARD^2; PerkinElmer, Inc., Shelton, CT, USA), and the protein content of the lysates was measured using a Pierce™ BCA protein assay kit (Thermo Fisher Scientific, Inc., Waltham, MA, USA). […]

U87MG cells = test: as above; type: cell-based, human; details: 100 µM blocker, 120 min, n = 4
Description: as §1

B1R [2] = molecular target: T1, B1R (Homo sapiens, UniProt P46663); parameters: could detect B1R endogenously expressed in glioblastoma cells; host or cells: U87MG human glioblastoma cells (intact, adherent); details: lung fibroblast cell membrane; read-out: binding affinity (Kd); cited from earlier work
T1 sequence (P46663 1-353): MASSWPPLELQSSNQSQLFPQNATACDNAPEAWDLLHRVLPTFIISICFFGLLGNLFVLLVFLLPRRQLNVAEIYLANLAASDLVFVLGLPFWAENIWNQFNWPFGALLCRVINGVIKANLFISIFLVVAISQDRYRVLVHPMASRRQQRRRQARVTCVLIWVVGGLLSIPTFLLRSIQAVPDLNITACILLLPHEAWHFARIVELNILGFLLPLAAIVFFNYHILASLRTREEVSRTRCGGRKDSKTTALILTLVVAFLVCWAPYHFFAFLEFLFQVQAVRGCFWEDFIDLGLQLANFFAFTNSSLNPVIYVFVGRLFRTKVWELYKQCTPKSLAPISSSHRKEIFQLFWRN
Text: (§2) Our study has several potential limitations. […] Although we could not evaluate the diagnostic utility of [^111In]In-DOTA-Ahx-R954 by comparing it with previously reported probes for SPECT and PET using parameters obtained under the same experimental conditions, improving the ...

B1R [3] = molecular target: T1, B1R; parameters: could detect B1R endogenously expressed in glioblastoma cells; details: B1R+ HEK293T cell membrane; read-out: binding affinity (Kd); cited from earlier work
Text: as §2

U87MG tumour xenografts = test system: U87MG tumour xenografts; parameters: species or system BALBc nu/nu male mice; details: mouse, in vivo
Description: Five-week-old BALBc nu/nu male mice (Japan SLC, Inc., Hamamatsu, Japan) were xenografted by subcutaneous injection of U87MG cells (5 × 10^6 cells per 50 μL of culture medium) into their right hind legs. The mice were subjected to biodistribution studies when the tumour weight reached 0.1−0.5 g.
Mice bearing U87MG tumour xenografts were injected via the tail vein with 100 μL of [^111In]In-DOTA-Ahx-R954 (30–74 kBq; 0.01–0.02 nmol) and were sacrificed and dissected 1, 4, and 24 h after administration. […] R954 was co-injected with [^111In]In-DOTA-Ahx-R954, and mice were sacrificed and dissected 1 and 4 h after administration. The tissues of interest were removed and weighed, and radioactivity was determined using an auto-well gamma counter. The results are presented as a percentage of the injected dose per gram (% dose/g).

B1R [4] = molecular target: T1, B1R; test: Saturation binding assay with Scatchard analysis on U87MG cells; parameters: could detect B1R endogenously expressed in glioblastoma cells; host or cells: U87MG human glioblastoma cells (intact, adherent); details: tracer 0.7-358 nM, NSB with 100 µM R954, Scatchard analysis, mean of three independent experiments
Description: The affinity of [^111In]In-DOTA-Ahx-R954 for B1R in the cells was measured using an R954 saturation assay with increasing concentrations of [^111In]In-DOTA-Ahx-R954 (range 0.7–358 nM). The Scatchard plot was used to estimate the Kd and Bmax values. The parameters were presented as means of three independent experiments (one assay performed on type I collagen-coated plates and two assays performed on Poly-D-Lysine plates).

Compound: [des-Arg^10]-kallidin
pEC50 (B1R [1]): 9.7
change in accumulated radioactivity in blocking study (U251MG cells): not in U251MG cells
change in accumulated radioactivity in blocking study (U87MG cells): significant decrease

Compound: [^3H](des-Arg^10, Leu^9)-kallidin
Kd (B1R [2]): 0.33 ± 0.07 nM
Kd (B1R [3]): 1.9 ± 0.5 nM

Kd (B1R [4]): 54.1 ± 18.9 nM
Compound: CC[C@H](C)[C@H](NC(=O)[C@@H](Cc1ccc2ccccc2c1)NC(=O)[C@H](CO)NC(=O)[C@](C)(Cc1ccccc1)NC(=O)CNC(=O)[C@@H]1CCCN1C(=O)[C@@H]1C[C@@H]2CCCC[C@@H]2N1C(=O)[C@H](CCCNC(=N)N)NC(=O)[C@H](CCCN)NC(=O)CCCCCNC(=O)CN1CCN(CC(=O)O)CCN(CC(=O)O)CCN(CC(=O)O)CC1)C(=O)O [[^111In]In-DOTA-Ahx-R954, metal not drawn] ({DOTA-Ahx}-[Orn]R[Oic]PG[αMeF]S[d2Nal]I-OH)
blood-brain barrier penetration (U87MG tumour xenografts): poor
reduction of radioactivity level in plasma compared to 1 h (U87MG tumour xenografts): 98%
reduction of radioactivity level in tumour compared to 1 h (U87MG tumour xenografts): 48%
